In assay [1] the target is T1, human CD33 (human, UniProt P20138 18-259). The experiment in a line: cell-based or functional assay.
Assay [2] deals with T1, human CD33. In words: cell-based or functional assay. The source holds these as a separate data set.
The target in assay [3] is T1, human CD33. The experiment in a line: cell-based or functional assay. This is another data set of the same source.
For assay [4], the target named is T1, human CD33. In words: cell-based or functional assay. The source holds these as a separate data set.
Assay [5] deals with T1, human CD33. The experiment in a line: cell-based or functional assay. The source holds these as a separate data set.
The target of assay [6] is T1, human CD33. In words: flow cytometry, HL-60 cells. (A flow cytometer gives signals particle by particle.)
In assay [7] the target is T2, human CD3 (human, UniProt P07766 23-207).
T2 construct: whole, on cells; Multi-chain complex on cells; also called hu CD3
T2 sequence (P07766 23-207): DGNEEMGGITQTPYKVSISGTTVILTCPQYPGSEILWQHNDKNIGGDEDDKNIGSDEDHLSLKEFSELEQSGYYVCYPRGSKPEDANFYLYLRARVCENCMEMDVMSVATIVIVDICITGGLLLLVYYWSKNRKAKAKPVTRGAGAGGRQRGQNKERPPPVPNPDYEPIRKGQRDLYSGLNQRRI
In words: flow cytometry, T cells.

Assay [8] addresses T2, human CD3. In words: flow cytometry, human T-cells.
The target in assay [9] is T1, human CD33. In words: flow cytometry, KG-1 cells. As to the method: (§1) Cells were incubated with 100 μL of serial dilutions of CD33/CD3 tandem diabodies. After washing three times with FACS buffer the cells were incubated with 0.1 mL of 10 μg/mL mouse monoclonal anti-His antibody in the same buffer for 45 min on ice. After a second washing cycle, the cells were incubated with 0.1 mL of 15 μg/mL FITC-conjugated goat anti-mouse IgG antibodies under the same conditions as before. As a control, cells were incubated with the anti-His IgG followed by the FITC-conjugated goat anti-mouse IgG antibodies without anti-CD33 tandem diabodies. […] The fluorescence of 1×10⁴ living cells was measured using a Beckman-Coulter FC500 MPL flow cytometer using the MXP software (Beckman-Coulter, Krefeld, Germany) or a Millipore Guava EasyCyte flow cytometer using the Incyte software (Merck Millipore, Schwalbach, Germany). Mean fluorescence intensities of the cell samples were calculated using CXP software (Beckman-Coulter, Krefeld, Germany) or Incyte software (Merck Millipore, Schwalbach, Germany). After subtracting the fluorescence intensity values of the cells stained with the secondary and tertiary reagents alone the values were used for calculation of the KD values with the equation for one-site binding (hyperbola) of the GraphPad Prism (version 6.00 for Windows, GraphPad Software, La Jolla Calif. USA). […]

Assay [10] addresses T1, human CD33. The experiment in a line: flow cytometry, HL-60 cells. The procedure: as §1
This is another data set of the same source.

For assay [11], the target named is T1, human CD33. The experiment in a line: flow cytometry, U-937 cells. As to the method:
as §1

Changes are numbered by the printed parent chain. Where “and” joins values, the source holds several entries; their conditions need not be identical. Identical values can stand only once.

The source of these data is patent US20210032339A1 (AMPHIVENA THERAPEUTICS, published 2021).

T1 sequence (P20138 18-259): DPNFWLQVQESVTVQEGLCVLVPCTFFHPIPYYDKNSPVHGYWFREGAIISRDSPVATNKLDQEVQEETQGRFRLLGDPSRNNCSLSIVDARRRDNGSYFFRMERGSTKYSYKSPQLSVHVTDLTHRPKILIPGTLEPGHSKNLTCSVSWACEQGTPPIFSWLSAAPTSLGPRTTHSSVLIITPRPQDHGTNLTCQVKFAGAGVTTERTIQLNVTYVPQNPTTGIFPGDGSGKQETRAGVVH

B1: CD33/CD3 tandem diabody 12 (bispecific antibody)
chain: DIQMTQSPSSLSASVGDRVTITCRSSTGAVTTSNYANWVQQKPGKAPKALIGGTNKRAPGVPSRFSGSLIGDKATLTISSLQPEDFATYYCALWYSNLWVFGQGTKVEIKGGSGGSQVQLVQSGAEVKKPGASVKVSCKASGYTFTSYDINWVRQAPGQGLEWMGWMNPNSGNTGFAQKFQGRVTMTRDTSTSTVYMELSSLRSEDTAVYYCARDRAVTDYYYGMDVWGQGTLVTVSSGGSGQSVLTQPPSASGTPGQRVTISCSGSRSNIGSNTVNWYQQLPGTAPKLLIYGNNQRPSGVPDRFSGSKSGTSASLAISGLQSEDEADYYCATWDDSLIGWVFGGGTKLTVLGGSGGSEVQLVESGGGLVQPGGSLRLSCAASGFTFSTYAMNWVRQAPGKGLEWVGRIRSKYNNYATYYADSVKDRFTISRDDSKNSLYLQMNSLKTEDTAVYYCARHGNFGNSYVSYFAYWGQGTLVTVSSAAAGSHHHHHH
Regarding B1, the “lysis of KG-1 cells, IC50” value with human CD33 [1] is around 0.01 pM. For the same molecule, in the assay with human CD33 [2], the “EC50 mean, cytotoxicity on BV-173” value worked out at 1.4 pM; the “EC50 mean, cytotoxicity on CHO-CD33” value is 11.8 pM; the “EC50 mean, cytotoxicity on HL-60” value amounted to 1.4 pM; the “EC50 mean, cytotoxicity on K562” value is 4.5 pM. Also, in the assay with human CD33 [2], the “EC50 mean, cytotoxicity on KASUMI-1” value came to 1.3 pM; the “EC50 mean, cytotoxicity on KG-1” value stood at 1 pM; the “EC50 mean, cytotoxicity on RPMI-8226” value came to 14 pM; the “EC50 mean, cytotoxicity on THP-1” value was found to be 1.9 pM. For the same molecule, the “EC50 mean, cytotoxicity on U-937” value with human CD33 [2] is 0.9 pM.

B2: CD33/CD3 tandem diabody 16 (bispecific antibody)
chain: B1 chain with V218N, Y222S, Y223L
On to B2, for which the “lysis of KG-1 cells, IC50” value with human CD33 [1] is ~0.5 pM and 5 pM. In the assay with human CD33 [3], the “EC50, calcein-release cytotoxicity on HL-60, 30 min” value is 4.8 pM; the “EC50, calcein-release cytotoxicity on HL-60, 60 min” value was 2.5 pM; the “EC50, calcein-release cytotoxicity on HL-60, 120 min” value is 1.6 pM; the “EC50, calcein-release cytotoxicity on HL-60, 180 min” value is 1.6 pM. For the same molecule, in the assay with human CD33 [3], the “EC50, calcein-release cytotoxicity on HL-60, 240 min” value was 1.5 pM and the “EC50, calcein-release cytotoxicity on HL-60, 300 min” value was 1.6 pM. For the same molecule, in the assay with human CD33 [2], the “EC50 mean, cytotoxicity on BV-173” value amounted to 3.2 pM; the “EC50 mean, cytotoxicity on CHO-CD33” value came to 24 pM; the “EC50 mean, cytotoxicity on HL-60” value worked out at 1.6 pM; the “EC50 mean, cytotoxicity on K562” value was 4.8 pM. Further, in the assay with human CD33 [2], the “EC50 mean, cytotoxicity on KASUMI-1” value stood at 2.4 pM; the “EC50 mean, cytotoxicity on KG-1” value was 1.9 pM; the “EC50 mean, cytotoxicity on RPMI-8226” value turned out to be 2.8 pM; the “EC50 mean, cytotoxicity on THP-1” value was determined as 6 pM. The “EC50 mean, cytotoxicity on U-937” value in the assay with human CD33 [2] stood at 1.3 pM.

B3: CD33/CD3 tandem diabody 14 (bispecific antibody)
chain: B1 chain with V218N, Y221F, Y222S, T312S
As to B3, the “EC50 on HL-60 (cytotoxicity)” value in the assay with human CD33 [4] was determined as 1.6 pM. In the assay with human CD33 [5], the “EC50, cytotoxicity on HL-60” value is 1.6 pM and 168 pg/mL; the “EC50, cytotoxicity on KG-1” value is 2.6 pM and 273 pg/mL; the “EC50, cytotoxicity on U-937” value is 3.6 pM and 378 pg/mL; the “EC50, cytotoxicity, mean of HL-60, U-937, KG-1” value was 2.6 pM and 273 pg/mL.

B4: CD33/CD3 tandem diabody 22 (bispecific antibody)
chain: DIQMTQSPSSLSASVGDRVTITCRSSTGAVTTSNYANWVQQKPGKAPKALIGGTNKRAPGVPSRFSGSLIGDKATLTISSLQPEDFATYYCALWYSNLWVFGQGTKVEIKGGSGGSQVQLVQSGAEVKKPGSSVKVSCKASGGTFSSYGISWVRQAPGQGLEWMGGIIPIFGSAHYAQKFQGRVTITADESTSTAYMELSSLRSEDTAVYYCAREYYYDSSEWAFDIWGQGTLVTVSSGGSGQSVLTQPPSASGTPGQRVTISCSGSSSNIGSNTVKWYQQLPGTAPKLLIYSNNQRSSGVPDRFSGSKSGTSASLAISGLQSEDEADYYCAAWDDSLNGYVFGGGTKLTVLGGSGGSEVQLVESGGGLVQPGGSLRLSCAASGFTFSTYAMNWVRQAPGKGLEWVGRIRSKYNNYATYYADSVKDRFTISRDDSKNSLYLQMNSLKTEDTAVYYCARHGNFGNSYVSYFAYWGQGTLVTVSSAAAGSHHHHHH
notes: Non-covalent homodimer; also called TandAb 22
Broadly, the Kd is the constant that tells how readily two partners part at equilibrium. The low end stands for higher affinity, the high end for lower affinity. As for B4, the dissociation constant Kd came out at 700 pM with human CD33 [6]; 4100 pM in the assay with human CD3 [7]; 4100 pM in the assay with human CD3 [8]; 2000 pM in the assay with human CD33 [9]; 700 pM with human CD33 [10]; 8600 pM with human CD33 [11]. The “EC50 on HL-60 (cytotoxicity)” value with human CD33 [4] came out at 3.2 pM.

B5: CD33/CD3 tandem diabody 23 (bispecific antibody)
chain: B4 chain with A49G, D72T, K73D, A74F, Y469W
notes: Non-covalent homodimer; also called TandAb 23
As to B5, the dissociation constant Kd was determined as 400 pM in the assay with human CD33 [6]; 97200 pM with human CD3 [7]; 97200 pM in the assay with human CD3 [8]; 1000 pM in the assay with human CD33 [9]; 400 pM with human CD33 [10]; 5100 pM with human CD33 [11]. In addition, the “EC50 on HL-60 (cytotoxicity)” value with human CD33 [4] worked out at 2.8 pM.

B6: CD33/CD3 tandem diabody 19 (bispecific antibody)
chain: DIQMTQSPSSLSASVGDRVTITCRSSTGAVTTSNYANWVQQKPGKAPKALIGGTNKRAPGVPSRFSGSLIGDKATLTISSLQPEDFATYYCALWYSNLWVFGQGTKVEIKGGSGGSQVQLVQSGAEVKKPGASVKVSCKASGYTFTSYYMHWVRQAPGQGLEWMGIINPSGGSTSYAQKFQGRVTMTRDTSTSTVYMELSSLRSEDTAVYYCARDVVPAAIDYYGMDVWGQGTTVTVSSGGSGQSVLTQPPSASGTPGQRVTISCSGSSSNIGSNTVNWYQQLPGTAPKLLIYSDNQRPSGVPDRFSGSKSGSSASLAISGLQSDDEADYYCATWDDSLNGAVFGGGTKLTVLGGSGGSEVQLVESGGGLVQPGGSLRLSCAASGFTFSTYAMNWVRQAPGKGLEWVGRIRSKYNNYATYYADSVKDRFTISRDDSKNSLYLQMNSLKTEDTAVYYCARHGNFGNSYVSYFAYWGQGTLVTVSSAAAGSHHHHHH
Turning to B6, the “lysis of KG-1 cells, IC50” value with human CD33 [1] was around 5 pM.
